Patent publication US6248715A, “Method of treating a urokinase-type plasminogen activator-mediated disorder” (Chiron Corporation, priority 1995, dated 2001)
Where no end group is shown, it is not given here. Fuc = fucose (fucosylation)

Experiments:
[1] = target: Baculovirus-derived recombinant human urokinase receptor, truncated soluble molecule, biotinylated (human) (UniProt Q03405); experiment: phage panning on biotinylated soluble uPAR on streptavidin plates; eluted cfu as a percentage of input; control phage
[2] = target: Baculovirus-derived recombinant human urokinase receptor, truncated soluble molecule, biotinylated (human) (UniProt Q03405); experiment: phage panning on biotinylated soluble uPAR on streptavidin plates; eluted cfu as a percentage of input; control phagemid
[3] = target: Baculovirus-derived recombinant human urokinase receptor, truncated soluble molecule, biotinylated (human) (UniProt Q03405); experiment: phage panning on biotinylated soluble uPAR on streptavidin plates; eluted cfu as a percentage of input
[4] = system: SaOS-2 osteosarcoma cell line; conditions: cited from earlier work
uPAR = uPAR (Homo sapiens, UniProt Q03405); conditions: cited from earlier work
Chain of uPAR (Q03405 23-335): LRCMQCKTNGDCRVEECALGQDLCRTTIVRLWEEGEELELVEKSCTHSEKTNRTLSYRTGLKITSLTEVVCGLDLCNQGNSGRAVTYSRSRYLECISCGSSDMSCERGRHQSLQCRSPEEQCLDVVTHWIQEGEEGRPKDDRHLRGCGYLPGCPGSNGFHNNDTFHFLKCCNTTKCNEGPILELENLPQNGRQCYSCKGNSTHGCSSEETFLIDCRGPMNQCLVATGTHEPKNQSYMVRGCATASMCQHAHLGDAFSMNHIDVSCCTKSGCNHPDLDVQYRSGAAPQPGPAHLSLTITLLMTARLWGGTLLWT

[5] = target: Baculovirus-derived recombinant human urokinase receptor, truncated soluble molecule, biotinylated (human, UniProt Q03405, biotinylated with NHS-biotin); experiment: radio-receptor competition assay: 125I-ATF tracer on biotinylated soluble uPAR immobilised on streptavidin plates
Protocol: Baculovirus-derived recombinant human urokinase receptor was expressed as a truncated, soluble molecule as described previously for mouse L-cells (Masucci et al., *J Biol Chem* (1991) 266:8655). The purified receptor was biotinylated with NHS-biotin, and immobilized at 1 μg/mL in PBS/0.1% BSA on streptavidin coated 96-well plates. Human uPA ATF (residues 1–135, obtained from M. Shuman, University of California, San Francisco) was iodinated using the Iodogen method (Pierce), and used as tracer. The ^125I-ATF was incubated at 100–500 pM with increasing amounts of huPA_1-48 in triplicate (100 pM-1 μM) for 2 hours at room temperature in 0.1% BSA/PBS in a total volume of 200 μL. The plates were then washed 3 times with PBS/BSA, and the remaining bound radioactivity determined.

## LP67 control phage (ampicillin-resistant M13)
[1]
  % Yield (+uPAR): 0.0099%

## Phagemid pGMEGF displaying M1-FLAG-EGF-medium long pIII (from UniProt P01133)
[2]
  % Yield (+uPAR): 0.0012%

## Phagemid pHM1a displaying M1-FLAG-UPAELD-short pIII (M1Flag-uPA1-48) (from UniProt P00749)
[3]
  % Yield (+uPAR): 0.094%

## Phagemid pHM3a displaying Glu-tag-UPAELD-short pIII (Glutag-uPA1-48) (from UniProt P00749)
[3]
  % Yield (+uPAR): 0.08%

## fucosylated EGF-like domain: fucosylated EGF-like domain (uPA4-43, produced by cleavage from pro-uPA) (LHQVPSNCDCLNGGT(Fuc)CVSNKYFSNIHWCNCPKKFGGQHCE; cysteine pairing not given here; UniProt P00749 24-63, looked up, fragment)
[4]
  mitogenic activity: mitogenic

## uPA12-32: the critical domain alone, residues 12-32 of uPA (Appella et al.) (DCLNGGTCVSNKYFSNIHWCN; UniProt P00749 32-52, looked up, fragment)
uPAR; compared with intact ATF
  affinity relative to intact ATF (fold less): about 100 fold
uPAR; critical domain alone, read-out: affinity for uPAR
  Kd: 40 nM

## SNELHQVPSNCDCLNGGTCVSNKYFSNIHWCNCPKKFGGQHCEIDKSK (ligand, ends and bridges not checked; cysteine pairing not given here)
[5]
  Kd: 0.3 nM
